Experiments:
[1] = test system: mBFP-transformed animal cells; experiment: NADPH imaging of mBFP-transformed animal cells treated with NADPH dehydrogenase inhibitors; format: cell-based; settings: compared among the inhibitors of Table 3
Experimental: The mBFP-transformed animal cells were cultured and treated with NADPH dehydrogenase inhibitors shown in Table 3, respectively, and the amount of change in NADPH was measured.

[2] = test system: recombinant animal cells (HeLa cell); experiment: Two-photon fluorescence imaging of mBFP-expressing animal cells after oxidant treatment; format: cell-based; settings: 40 μM diamide; glucose-free medium; images every second
Experimental: The recombinant animal cells produced in the Examples above were treated with diamide, which is an oxidant, to reduce the amount of NADPH in the cells, and the change in fluorescence was observed as follows. First, before observing the recombinant animal cells, the medium was replaced with a culture medium from which glucose was removed to prevent continuous overproduction of NADPH, and the cells were cultured for 1 hour and images thereof were observed. After treatment with 40 μM diamide, fluorescence images were taken every second using a real-time image measurement method using a two-photon microscopy.

[3] = Enzyme activity (aldehyde dehydrogenase) of purified mutant mBFP; format: biochemical; settings: purified protein
Experimental: In order to measure benzaldehyde dehydrogenase activity, a reaction solution of pH 7.5 in which 100 mM Tris, 100 mM sodium chloride, 0.05% Triton X-100, […] and added at an amount of 10 μL per well containing 90 μL of cultured cells, and reacted for 10 minutes. The change in fluorescence value was measured by the fluorescence reader to measure the amount of NADPH consumed by the activity of mBFP mutant enzyme.
In order to measure the enzyme activity of the short-chain dehydrogenase/reductase family (SDR family) of the purified mutant mBFP, a reaction solution (100 mM Tris, 100 mM sodium chloride, 0.05% Triton X-100, 0.5 mM benzaldehyde, 0.5 mM NADPH, pH 7.5) for measuring aldehyde dehydrogenase was added at an amount of 10 μL to each well to which the protein was added, and reacted for 10 minutes, and then the amount of reduced NADPH was measured using a fluorescent reader.

[4] = Benzaldehyde reductase activity of mBFP purified from transformed cells; format: biochemical; settings: benzaldehyde reaction solution
Experimental: The cultured cells were disrupted, recovered, and purified using the His-tag as follows.
The cell supernatant disrupted with phosphate buffered saline (PBS) was injected into and passed through Ni-NTA Spin Columns (Qiagen), and washed with wash buffer (PBS, 10 mM imidazole). Then, the mBFP protein was recovered with the elution buffer (PBS, 100 mM imidazole).
In order to confirm whether the mBFP protein had activity as a reductase through mutation, the reductase activity of mBFP was measured using the reaction solution for measuring the benzaldehyde reductase activity of Example 1 above.

With `NC(=O)c1ccc(N)nc1` [6-ANA, 6-Aminonicotinamide] the “difference of fluorescence intensity due to mBFP after inhibitor treatment” value [1] was “the largest”.

With `C[C@]12CC[C@H](O)CC1=CC[C@@H]1[C@@H]2CC[C@]2(C)C(=O)CC[C@@H]12` [DHEA, Dehydroepiandrosterone] the “difference of fluorescence intensity due to mBFP after inhibitor treatment” value [1] was “the largest”.

For `CN(C)C(=O)/N=N/C(=O)N(C)C` [diamide], the “fluorescence intensity after oxidant treatment” value [2] was “rapidly decreased”.

B1: Wild type: wild-type metagenome-derived blue fluorescent protein, SEQ ID NO: 6, GenBank Accession No. AF485783 (protein)
chain: MQNLNGKVAFVTGGSRGIGAAIVRRLAADGADIAFTYVSASSKNVATALVQELEAKGRRARAIQADSADPAQVRQAVEQAIVQLGPVDVLVNNAGIFLAGPLGEVTLDDYERTMNINVRAPFVAIQAAQASMPDGGRIINIGSCLAERAGRAGVTLYAASKSALLGMTRGLARDLGARGITANVVHPGPIDTDMNPADGERSGELVAVLSLPHYGEVRDIAGMVAFLAGPDGRYVTGASLAVDGGFAA
modifications: BFP wild type Y157 w/o his-tag
With B1 the “Enzyme activity of mutant mBFP, Acetaldehyde” value ([3]; substrate acetaldehyde) was 10.34 ± 0.24 U mg^−1, the “Enzyme activity of mutant mBFP, Benzaldehyde” value ([3]; substrate benzaldehyde) was 6.41 ± 0.34 U mg^−1 and the “Enzyme activity of mutant mBFP, Hexanal” value ([3]; substrate hexanal) was 4.34 ± 0.14 U mg^−1. The “Enzyme activity of mutant mBFP, Pivaldehyde” value ([3]; substrate pivaldehyde) was 14.43 ± 0.68 U mg^−1 and the “reductase activity (in words)” value [4] was “exhibited the reductase activity”.

From patent publication US10308973B1, “Real-time imaging method of NAPDH-dependent metabolic activity in cell and use thereof” (INDUSTRY FOUNDATION OF CHONNAM NATIONAL UNIVERSITY, priority 2018, dated 2019)
